In the RNAGym collection of RNA variant scans (doi:10.7554/elife.80360) one finds self-cleavage data, which are given here for 167 variants.

Sequences and labels used below:
B1: Twister Ribozyme (parent)
chain: AACACUGCCAAUGCCGGUCCCAAGCCCGGAUAAAAGUGGAGGGGGCGG

This data set covers variants of B1. The data set is described as follows: self-cleavage, relative activity (ratio to wild type); higher = more cleavage; co-transcriptional.
With G17C C19G, the self-cleavage was determined as 0.0591.

With G17C C19A, the self-cleavage stood at 0.0513.

In the case of A1C C9G, the self-cleavage was found to be 0.23.

As for C5G A35U, the self-cleavage was found to be 0.637.

Regarding A40C C46A, the self-cleavage worked out at 0.202.

Consider A33C G41U, for which the self-cleavage came out at 0.265.

As to A4G A23C, the self-cleavage turned out to be 0.0625.

Take C14A G29A: the self-cleavage came out at 0.974.

Turning to G29A U31G, the self-cleavage is 0.926.

Turning to A34U G43A, the self-cleavage is 0.209.

With A2C G47A, the self-cleavage was 0.0858.

As to A10C U31G, the self-cleavage was 0.737.

On to C20A G42C, for which the self-cleavage worked out at 0.78.

For the variant U6A A32U, the self-cleavage was determined as 0.862.

Take G13U G38C: the self-cleavage came to 0.6.

For the variant A23G G47U, the self-cleavage is 0.17.

As to C5G G41A, the self-cleavage amounted to 0.168.

In the case of C20G G38U, the self-cleavage was 0.0717.

C15A A32C: the self-cleavage came out at 0.529.

As for C19A C46U, the self-cleavage was found to be 0.304.

As to A10G C27U, the self-cleavage is 1.01.

Turning to U12G C14A, the self-cleavage is 0.726.

On to C19U, for which the self-cleavage was found to be 1.05.

On to C20U C21G, for which the self-cleavage amounted to 0.0649.

For the variant A10G G43C, the self-cleavage came out at 0.262.

A11G A22G: the self-cleavage came out at 0.23.

G16A A32C: the self-cleavage stood at 0.97.

For A22G A30C, the self-cleavage is 0.111.

Regarding C8G A40U, the self-cleavage came to 0.0905.

For the variant C26A A32G, the self-cleavage was 0.636.

On to C26U G43C, for which the self-cleavage came out at 0.0933.

On to G43U G45A, for which the self-cleavage turned out to be 0.614.

For G28A U31A, the self-cleavage was determined as 0.904.

For the variant G42U C46U, the self-cleavage is 0.383.

As to C27A G29A, the self-cleavage worked out at 0.382.

C14G A32C: the self-cleavage was found to be 0.12.

Turning to G7C C21G, the self-cleavage stood at 0.0593.

As for G7C C21U, the self-cleavage worked out at 0.0396.

For the variant A30G G43A, the self-cleavage is 0.22.

On to C8G A22G, for which the self-cleavage came to 0.0585.

On to A23C G29C, for which the self-cleavage was determined as 0.0814.

As to G24A G39A, the self-cleavage amounted to 0.106.

On to C14G G41C, for which the self-cleavage stood at 0.0824.

Regarding A4U U18G, the self-cleavage worked out at 0.0369.

As for C26A A34U, the self-cleavage turned out to be 0.177.

For A1U U6C, the self-cleavage stood at 0.0726.

Turning to A4U A10G, the self-cleavage came out at 0.125.

For the variant A32G G36C, the self-cleavage is 0.403.

Consider C21G C26A, for which the self-cleavage was 0.0789.

For C20U U31A, the self-cleavage is 0.68.

Consider C21U A22G, for which the self-cleavage worked out at 0.0633.

On to C9G A11C, for which the self-cleavage was determined as 0.764.

Take C8A A35U: the self-cleavage came to 0.477.

For the variant G7C C8U, the self-cleavage was 0.0597.

As to C20G A23C, the self-cleavage was found to be 0.118.

As to A4U G47U, the self-cleavage came to 0.0997.

As to C20G A34U, the self-cleavage came out at 0.074.

For the variant A22G C26A, the self-cleavage amounted to 0.0908.

Turning to G17A A40G, the self-cleavage was 0.171.

With G17A A40U, the self-cleavage was determined as 0.117.

On to A33C G44A, for which the self-cleavage is 0.832.

Take A2G G45U: the self-cleavage stood at 0.159.

With G41U G44C, the self-cleavage amounted to 0.218.

G44A: the self-cleavage amounted to 0.959.

Turning to G7A C25A, the self-cleavage turned out to be 0.0809.

In the case of G7A C25G, the self-cleavage is 0.237.

Take C14G C46U: the self-cleavage was found to be 0.175.

G16C G45A: the self-cleavage was 0.161.

For the variant A2U A23C, the self-cleavage was 0.107.

For A32U G47A, the self-cleavage was 0.883.

Regarding C26G G48C, the self-cleavage stood at 0.229.

As for A23C C25U, the self-cleavage amounted to 0.116.

As to U18A G45C, the self-cleavage turned out to be 0.155.

In the case of G7A A40U, the self-cleavage is 0.127.

Turning to A35G G47U, the self-cleavage is 0.81.

Take U12G A33G: the self-cleavage stood at 0.809.

Take G13A G43U: the self-cleavage stood at 0.182.

A1C G29A: the self-cleavage turned out to be 0.184.

On to C15G A40C, for which the self-cleavage was determined as 0.0616.

Consider G7A G29U, for which the self-cleavage was determined as 0.339.

Regarding G24C G36U, the self-cleavage was 0.0983.

As to C9A G43A, the self-cleavage was found to be 0.153.

For the variant G13U C21U, the self-cleavage was 0.0908.

For A4G G29C, the self-cleavage turned out to be 0.571.

A10G G16U: the self-cleavage was 1.14.

As to C9G G47C, the self-cleavage was found to be 0.186.

For C21G G39U, the self-cleavage stood at 0.0469.

As to A10C G43C, the self-cleavage came to 0.201.

With G13A G28C, the self-cleavage stood at 0.581.

For the variant C25G C46A, the self-cleavage stood at 0.148.

On to G38A C46U, for which the self-cleavage amounted to 0.877.

Consider C26A U37G, for which the self-cleavage was 0.17.

For U31G G48C, the self-cleavage was found to be 1.19.

As for C25U C26G, the self-cleavage stood at 0.131.

For C27U G45A, the self-cleavage was 0.819.

Regarding G16A G39C, the self-cleavage was determined as 0.141.

Consider G13C A22U, for which the self-cleavage was found to be 0.16.

As to C14G G17A, the self-cleavage is 0.122.

Consider C14G G17C, for which the self-cleavage was 0.124.

As for C25G G28A, the self-cleavage is 0.346.

In the case of C21A G44U, the self-cleavage turned out to be 0.108.

Turning to C20A G48U, the self-cleavage worked out at 0.142.

For C5U G45A, the self-cleavage was 0.605.

In the case of C21U A30G, the self-cleavage was found to be 0.097.

Regarding G13C A23G, the self-cleavage amounted to 0.139.

G28A A35G: the self-cleavage is 0.575.

With G16U C27A, the self-cleavage is 0.908.

For A22U G47A, the self-cleavage came to 0.582.

As to C26G A33U, the self-cleavage was found to be 0.135.

As to A32C A40U, the self-cleavage is 0.123.

Regarding C21A G42C, the self-cleavage worked out at 0.15.

Consider G13C C46G, for which the self-cleavage was 0.268.

As for A10C C14G, the self-cleavage was determined as 0.289.

As for A32U G39C, the self-cleavage came to 0.144.

As to U18G A33G, the self-cleavage turned out to be 0.0866.

For C9U G36U, the self-cleavage came out at 0.164.

On to U6G G47U, for which the self-cleavage came to 0.151.

For A11G C25U, the self-cleavage amounted to 0.737.

As to C5U A11C, the self-cleavage worked out at 0.541.

On to A11G G13A, for which the self-cleavage turned out to be 0.745.

For A4U C9U, the self-cleavage stood at 0.0756.

U12A G29C: the self-cleavage was found to be 0.949.

On to G16U G42U, for which the self-cleavage was 0.166.

For the variant A23U G47A, the self-cleavage was found to be 0.245.

Turning to A22U G43C, the self-cleavage turned out to be 0.129.

G7U A32G: the self-cleavage was 0.0756.

Consider G24C G47C, for which the self-cleavage is 0.0946.

As for U12A A33C, the self-cleavage was 1.04.

With C14U G39C, the self-cleavage was 0.198.

For G41C C46A, the self-cleavage came out at 0.254.

On to G41C C46G, for which the self-cleavage stood at 0.286.

As for G13C A32G, the self-cleavage was 0.255.

On to G24U A40G, for which the self-cleavage came to 0.0745.

As for A2C C19U, the self-cleavage was found to be 0.0609.

Turning to U12C G13A, the self-cleavage is 0.772.

On to A11U U18A, for which the self-cleavage was 1.

In the case of A11U U18C, the self-cleavage is 0.617.

Regarding G44U G45A, the self-cleavage was 0.825.

As to A10C C26U, the self-cleavage was found to be 0.508.

With C8A G44A, the self-cleavage came out at 0.555.

For the variant U31C U37A, the self-cleavage is 0.892.

As to U31G A40G, the self-cleavage turned out to be 0.0918.

With A40C G48A, the self-cleavage worked out at 0.192.

With C8U C15G, the self-cleavage is 0.0382.

Consider C3G C21A, for which the self-cleavage worked out at 0.0645.

Turning to G28A A40G, the self-cleavage was determined as 0.188.

G29A G45A: the self-cleavage was 0.724.

On to A10G A30U, for which the self-cleavage came to 0.984.

With C5U A22C, the self-cleavage turned out to be 0.963.

Regarding C19A G36U, the self-cleavage was determined as 0.0959.

Regarding C3A G42A, the self-cleavage was 0.0462.

Regarding G36A, the self-cleavage came to 0.843.

As to C15U C19G, the self-cleavage is 0.251.

For G48A, the self-cleavage is 0.986.

Consider U6C G16C, for which the self-cleavage came out at 0.146.

For C20G C27G, the self-cleavage was 0.0793.

With A1U A32U, the self-cleavage worked out at 0.0613.

Take U12G A40G: the self-cleavage came to 0.163.

Turning to U18C A32U, the self-cleavage came out at 0.464.

Turning to C19U G47U, the self-cleavage was 0.39.

Regarding U12A G45U, the self-cleavage came out at 1.02.

Regarding G47C, the self-cleavage stood at 0.706.

On to G7A C46A, for which the self-cleavage was determined as 0.354.

C9A A40G: the self-cleavage came to 0.129.

In the case of A10G A40G, the self-cleavage was 0.185.

C9U G48A: the self-cleavage came out at 0.491.

With G17C G48C, the self-cleavage came to 0.152.
